The subject of data set [1] is HeLa Kyoto. Briefly: solubility in G1/S (NP-40 vs SDS abundance) (log2 ratio); higher = more soluble. To be noted: cell cycle stage: G1/S.
For data set [2], the system named is HeLa Kyoto. In words: solubility change mitosis vs G1/S (difference of NP-40 vs SDS log2 ratios) (log2 ratio difference); higher = more soluble in mitosis.
The test system of data set [3] is HeLa Kyoto. In words: melting temperature (median over replicates), in situ; higher = more thermally stable.
In data set [4] the test system is HeLa Kyoto. Briefly: thermal stability score vs G1/S (z-score of summed log2 fold changes over temperatures); higher = more thermally stable than in G1/S.
The mark [5] stands for this setting: cell cycle stage: early G1 (4.5 h after nocodazole release).
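Throughout, for melting temperature (median over replicates), in situ: HeLa Kyoto cells synchronized by double thymidine or nocodazole block, proteins quantified by TMT10plex mass spectrometry, three independent biological replicates.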
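Throughout, for solubility change mitosis vs G1/S (difference of NP-40 vs SDS log2 ratios): synchronized HeLa Kyoto cells (double thymidine block for G1/S, nocodazole release for mitosis), protein amounts in NP-40 versus SDS lysates quantified by mass spectrometry, three biological replicates.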
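Throughout, for solubility in G1/S (NP-40 vs SDS abundance): HeLa Kyoto cells arrested at G1/S by double thymidine block, proteins quantified by TMT10plex mass spectrometry in mild NP-40 versus SDS extracts, three biological replicates.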
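Throughout, for thermal stability score vs G1/S (z-score of summed log2 fold changes over temperatures): synchronized HeLa Kyoto cells, proteins quantified by TMT10plex mass spectrometry, three biological replicates, mitosis taken 0.5 h after nocodazole release, G1/S directly after double thymidine block.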

For “MYALFLLASLLGAALAGPVLGLKECTRGSAVWCQNVKTASDCGAVKHCLQTVWNKPTVKSLPCDICKDVVTAAGDMLKDNATEEEILVYLEKTCDWLPKPNMSASCKEIVDSYLPVILDIIKGEMSRPGEVCSALNLCESLQKHLAELNHQKQLESNKIPELDMTEVVAPFMANIPLLLYPQDGPRSKPQPKDNGDVCQDCIQMVTDIQTAVRTNSTFVQALVEHVKEECDRLGPGMADICKNYISQYSEIAIQMMMHMQPKEICALVGFCDEVKEMPMQTLVPAKVASKNVIPALELVEPIKKHEVPAKSDVYCEVCEFLVKEVTKLIDNNKTEKEILDAFDKMCSKLPKSLSEECQEVVDTYGSSILSILLEEVSPELVCSMLHLCSGTRLPALTVHVTQPKDGGFCEVCKKLVGYLDRNLEKNSTKQEILAALEKGCSFLPDPYQKQCDQFVAEYEPVLIEILVEVMDPSFVCLKIGACPSAHKPLLGTEKCIWGPSYWCQNTETAAQCNAVEHCKRHVWN [PSAP]”, the “solubility in G1/S (log2)” value in data set [1] worked out at 0.0145. The “solubility change mitosis (log2)” value in data set [2] came out at 0.32. The melting temperature in data set [3] (cell cycle stage: G1/S) came out at 58.6 °C; in data set [3] (cell cycle stage: mitosis) it was 56.3 °C. The thermal stability score in data set [4] (setting [5]) is -1.22; in data set [4] (cell cycle stage: mitosis), -0.0458.

“MYDNMSTMVYIKEDKLEKLTQDEIISKTKQVIQGLEALKNEHNSILQSLLETLKCLKKDDESNLVEEKSNMIRKSLEMLELGLSEAQVMMALSNHLNAVESEKQKLRAQVRRLCQENQWLRDELANTQQKLQKSEQSVAQLEEEKKHLEFMNQLKKYDDDISPSEDKDTDSTKEPLDDLFPNDEDDPGQGIQQQHSSAAAAAQQGGYEIPARLRTLHNLVIQYASQGRYEVAVPLCKQALEDLEKTSGHDHPDVATMLNILALVYRDQNKYKDAANLLNDALAIREKTLGKDHPAVAATLNNLAVLYGKRGKYKEAEPLCKRALEIREKVLGKDHPDVAKQLNNLALLCQNQGKYEEVEYYYQRALEIYQTKLGPDDPNVAKTKNNLASCYLKQGKFKQAETLYKEILTRAHEREFGSVDDENKPIWMHAEEREECKGKQKDGTSFGEYGGWYKACKVDSPTVTTTLKNLGALYRRQGKFEAAETLEEAAMRSRKQGLDNVHKQRVAEVLNDPENMEKRRSRESLNVDVVKYESGPDGGEEVSMSVEWNGGVSGRASFCGKRQQQQWPGRRHR [KLC1]”: the “solubility in G1/S (log2)” value in data set [1] stood at 0.299. Moreover, in data set [2], the “solubility change mitosis (log2)” value was -0.175. Also, the figures for the melting temperature in data set [3] (cell cycle stage: G1/S) and in data set [3] (cell cycle stage: mitosis) were 51.6 °C and 51.4 °C, respectively. In addition, the thermal stability score in data set [4] (setting [5]) came out at 0.136; in data set [4] (cell cycle stage: mitosis), 0.172.

In the case of “MYHNSSQKRHWTFSSEEQLARLRADANRKFRCKAVANGKVLPNDPVFLEPHEEMTLCKYYEKRLLEFCSVFKPAMPRSVVGTACMYFKRFYLNNSVMEYHPRIIMLTCAFLACKVDEFNVSSPQFVGNLRESPLGQEKALEQILEYELLLIQQLNFHLIVHNPYRPFEGFLIDLKTRYPILENPEILRKTADDFLNRIALTDAYLLYTPSQIALTAILSSASRAGITMESYLSESLMLKENRTCLSQLLDIMKSMRNLVKKYEPPRSEEVAVLKQKLERCHSAELALNVITKKRKGYEDDDYVSKKSKHEEEEWTDDDLVESL [CCNH]”, the “solubility in G1/S (log2)” value in data set [1] stood at 0.259. Moreover, the “solubility change mitosis (log2)” value in data set [2] was -0.195. The melting temperature is 51.1 °C in data set [3] (cell cycle stage: G1/S) and 52.2 °C in data set [3] (cell cycle stage: mitosis). For the same sequence, the thermal stability score in data set [4] (setting [5]) is 0.868; in data set [4] (cell cycle stage: mitosis), 1.73.

“MYLVAGDRGLAGCGHLLVSLLGLLLLLARSGTRALVCLPCDESKCEEPRNCPGSIVQGVCGCCYTCASQRNESCGGTFGIYGTCDRGLRCVIRPPLNGDSLTEYEAGVCEDENWTDDQLLGFKPCNENLIAGCNIINGKCECNTIRTCSNPFEFPSQDMCLSALKRIEEEKPDCSKARCEVQFSPRCPEDSVLIEGYAPPGECCPLPSRCVCNPAGCLRKVCQPGNLNILVSKASGKPGECCDLYECKPVFGVDCRTVECPPVQQTACPPDSYETQVRLTADGCCTLPTRCECLSGLCGFPVCEVGSTPRIVSRGDGTPGKCCDVFECVNDTKPACVFNNVEYYDGDMFRMDNCRFCRCQGGVAICFTAQCGEINCERYYVPEGECCPVCEDPVYPFNNPAGCYANGLILAHGDRWREDDCTFCQCVNGERHCVATVCGQTCTNPVKVPGECCPVCEEPTIITVDPPACGELSNCTLTGKDCINGFKRDHNGCRTCQCINTEELCSERKQGCTLNCPFGFLTDAQNCEICECRPRPKKCRPIICDKYCPLGLLKNKHGCDICRCKKCPELSCSKICPLGFQQDSHGCLICKCREASASAGPPILSGTCLTVDGHHHKNEESWHDGCRECYCLNGREMCALITCPVPACGNPTIHPGQCCPSCADDFVVQKPELSTPSICHAPGGEYFVEGETWNIDSCTQCTCHSGRVLCETEVCPPLLCQNPSRTQDSCCPQCTDQPFRPSLSRNNSVPNYCKNDEGDIFLAAESWKPDVCTSCICIDSVISCFSESCPSVSCERPVLRKGQCCPYCIEDTIPKKVVCHFSGKAYADEERWDLDSCTHCYCLQGQTLCSTVSCPPLPCVEPINVEGSCCPMCPEMYVPEPTNIPIEKTNHRGEVDLEVPLWPTPSENDIVHLPRDMGHLQVDYRDNRLHPSEDSSLDSIASVVVPIIICLSIIIAFLFINQKKQWIPLLCWYRTPTKPSSLNNQLVSVDCKKGTRVQVDSSQRMLRIAEPDARFSGFYSMQKQNHLQADNFYQTV [CRIM1]”: in data set [1], the “solubility in G1/S (log2)” value is -0.0525. Also, the “solubility change mitosis (log2)” value in data set [2] was -0.0635. The melting temperature in data set [3] (cell cycle stage: G1/S) turned out to be 53.8 °C; in data set [3] (cell cycle stage: mitosis) it was 54.9 °C. Moreover, the thermal stability score was -2.44 in data set [4] (setting [5]) and -0.713 in data set [4] (cell cycle stage: mitosis).

These data come from the supplement of paper PMC5998384.
